According to publication PMC11550485 (Science (New York, N.Y.), 2023):

Target: 6×His-GFP-tau (human, UniProt P10636-8 1-441)
Assay: pull-down

- binding result: binds
B1: GST-TRIM11 (natural protein, human, UniProt Q96F44 1-468, looked up)
chain: MAAPDLSTNLQEEATCAICLDYFTDPVMTDCGHNFCRECIRRCWGQPEGPYACPECRELSPQRNLRPNRPLAKMAEMARRLHPPSPVPQGVCPAHREPLAAFCGDELRLLCAACERSGEHWAHRVRPLQDAAEDLKAKLEKSLEHLRKQMQDALLFQAQADETCVLWQKMVESQRQNVLGEFERLRRLLAEEEQQLLQRLEEEELEVLPRLREGAAHLGQQSAHLAELIAELEGRCQLPALGLLQDIKDALRRVQDVKLQPPEVVPMELRTVCRVPGLVETLRRFRGDVTLDPDTANPELILSEDRRSVQRGDLRQALPDSPERFDPGPCVLGQERFTSGRHYWEVEVGDRTSWALGVCRENVNRKEKGELSAGNGFWILVFLGSYYNSSERALAPLRDPPRRVGIFLDYEAGHLSFYSATDGSLLFIFPEIPFSGTLRPLFSPLSSSPTPMTICRPKGGSGDTLAPQ
